Patent US20080194482A1, “Selective Apac2 Receptor Peptide Agonists” (priority 2005, published 2008)
Numbered stars: 1 amine (or outer) side, 2 acyl side, 3 side chain; on linkers, the order of the positions; unused ones are H or OH. Square brackets hold non-standard residues; d marks the D form. Ends that are not written are not given here. Peptide text beside a SMILES is read from it. * marks the point of attachment. Tyr(OMe) = O-methyl-tyrosine, COc1ccc(C[C@H](N[*:1])C(=O)[*:2])cc1; Orn = NCCC[C@H](N)C(=O)O; Hexanoyl = CCCCCC(=O)*; Aib = CC(C)(N)C(=O)O

B1: VPAC2 receptor peptide agonist P487 (peptide)
peptide: HSDAVFTEQYTXLRXQLAAXXYLQSIXXGGPSSGAPPPS
modifications: N-terminal hexanoyl (C6); Tyr(OMe) at 10; Orn at 12, 21, 27 and 28; Aib at 15 and 20; C-terminal amide (-NH2)

How the values were obtained:
[1] = target: T1, human PAC1 (Homo sapiens, UniProt P41586); experiment: Filter binding assay, 125I-labeled PACAP-27 tracer, PAC1 membranes; details: read-out: Human PAC1 Receptor Binding (IC50; nM)
T1 construct: expressed in transfected cells
T1 sequence (P41586 21-468): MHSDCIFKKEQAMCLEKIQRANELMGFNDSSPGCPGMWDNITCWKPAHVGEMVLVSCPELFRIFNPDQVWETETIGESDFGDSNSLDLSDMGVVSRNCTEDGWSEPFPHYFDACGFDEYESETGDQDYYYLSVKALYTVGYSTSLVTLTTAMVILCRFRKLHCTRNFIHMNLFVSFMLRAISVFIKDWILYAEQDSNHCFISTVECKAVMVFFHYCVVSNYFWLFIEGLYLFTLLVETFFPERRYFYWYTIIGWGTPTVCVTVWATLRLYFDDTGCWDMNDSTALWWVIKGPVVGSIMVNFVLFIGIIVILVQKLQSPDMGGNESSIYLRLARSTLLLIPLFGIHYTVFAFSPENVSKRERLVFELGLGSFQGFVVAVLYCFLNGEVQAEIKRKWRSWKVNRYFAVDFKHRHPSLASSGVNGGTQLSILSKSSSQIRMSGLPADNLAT
Protocol: For this assay, the solutions and equipment include:
Presoak solution: 0.5% Polyethyleneamine in Aqua dest
Buffer for flushing filter plates: 25 mM HEPES pH 7.4
Blocking buffer: 25 mM HEPES pH 7.4; 0.2% protease free BSA
Assay buffer: 25 mM HEPES pH 7.4; 0.5% protease free BSA
Dilution and assay plate: PS-Microplate, U form
Filtration Plate: Multiscreen FB Opaque Plate; 1.0 μM Type B Glasfiber filter
In order to prepare the filter plates, the presoak solution is aspirated by vacuum filtration. The plates are flushed twice with 200 μL flush buffer. 200 μL blocking buffer is added to the filter plate. The filter plate is then incubated with 200 μL presoak solution for 1 hour at room temperature.
The assay plate is filled with 25 μL assay buffer, 25 μL membranes (2.5 μg) suspended in assay buffer, 25 μL compound (agonist) in assay buffer, and 25 μL tracer (about 40000 cpm) in assay buffer. The filled plate is incubated for 1 hour with shaking.
The transfer from assay plate to filter plate is conducted. The blocking buffer is aspirated by vacuum filtration and washed two times with flush buffer. 90 μL is transferred from the assay plate to the filter plate. The 90 μL transferred from assay plate is aspirated and washed three times with 200 μL flush buffer. The plastic support is removed. It is dried for 1 hour at 60° C. 30 μL Microscint is added. The count is performed.

[2] = target: T2, rat VPAC2 receptor (rat, UniProt P35000 23-437); experiment: cell-based or functional assay
T2 sequence (looked up): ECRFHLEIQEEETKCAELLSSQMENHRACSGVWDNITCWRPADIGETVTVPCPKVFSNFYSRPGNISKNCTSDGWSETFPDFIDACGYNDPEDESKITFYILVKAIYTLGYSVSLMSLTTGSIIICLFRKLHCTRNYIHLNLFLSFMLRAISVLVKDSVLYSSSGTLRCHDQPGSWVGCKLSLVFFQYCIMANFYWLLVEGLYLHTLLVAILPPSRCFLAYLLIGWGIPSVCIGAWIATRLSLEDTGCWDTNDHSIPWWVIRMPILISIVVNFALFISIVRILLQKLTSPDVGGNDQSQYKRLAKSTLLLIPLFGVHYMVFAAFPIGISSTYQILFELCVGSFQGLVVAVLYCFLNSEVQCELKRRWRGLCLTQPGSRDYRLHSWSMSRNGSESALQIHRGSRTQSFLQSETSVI

[3] = target: T3, human VPAC2 receptor (human, UniProt P41587 24-438); experiment: cell-based or functional assay
T3 sequence (looked up): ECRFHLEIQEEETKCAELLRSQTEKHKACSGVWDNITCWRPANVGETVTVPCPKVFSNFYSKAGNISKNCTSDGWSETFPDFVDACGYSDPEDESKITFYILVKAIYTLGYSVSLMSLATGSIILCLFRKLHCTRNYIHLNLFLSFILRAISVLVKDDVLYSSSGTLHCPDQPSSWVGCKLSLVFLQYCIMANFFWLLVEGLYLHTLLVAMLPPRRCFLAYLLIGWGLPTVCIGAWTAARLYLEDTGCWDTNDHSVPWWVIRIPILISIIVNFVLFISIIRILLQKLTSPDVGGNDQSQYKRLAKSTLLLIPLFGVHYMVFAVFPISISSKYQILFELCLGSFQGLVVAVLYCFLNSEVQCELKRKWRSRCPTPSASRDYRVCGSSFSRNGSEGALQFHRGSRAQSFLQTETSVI

[4] = target: T4, rat VPAC1 receptor (rat, UniProt P30083 31-459); experiment: cell-based or functional assay
T4 sequence (looked up): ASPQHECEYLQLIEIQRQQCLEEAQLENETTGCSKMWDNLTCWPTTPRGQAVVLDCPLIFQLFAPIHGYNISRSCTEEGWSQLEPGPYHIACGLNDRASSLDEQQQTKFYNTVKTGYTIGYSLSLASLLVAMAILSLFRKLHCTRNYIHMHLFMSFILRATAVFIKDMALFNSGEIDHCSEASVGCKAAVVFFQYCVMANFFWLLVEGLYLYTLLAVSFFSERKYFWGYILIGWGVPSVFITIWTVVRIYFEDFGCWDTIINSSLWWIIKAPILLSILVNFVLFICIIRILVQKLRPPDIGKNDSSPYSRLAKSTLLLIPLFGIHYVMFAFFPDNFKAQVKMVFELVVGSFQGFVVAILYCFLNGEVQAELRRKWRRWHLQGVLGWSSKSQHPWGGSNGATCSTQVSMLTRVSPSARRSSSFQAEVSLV

| Molecule | IC50 [1] [nM] | Rat VPAC2 Receptor: DiscoveRx (EC50; nM), cAMP generation [2] [nM] | Human VPAC2 Receptor: Alpha Screen (EC50; nM), cAMP generation [3] [nM] | Rat VPAC1 Receptor: DiscoveRx (EC50; nM), cAMP generation [4] [nM] |
| --- | --- | --- | --- | --- |
| CCCCCC(=O)N[C@@H](Cc1c[nH]cn1)C(=O)N[C@@H](CO)C(=O)N[C@@H](CC(=O)O)C(=O)N[C@@H](C)C(=O)N[C@H](C(=O)N[C@@H](Cc1ccccc1)C(=O)N[C@H](C(=O)N[C@@H](CC(=O)O)C(=O)N[C@@H](CC(N)=O)C(=O)N[C@@H](Cc1ccc(O)cc1)C(=O)N[C@H](C(=O)N[C@@H](CCCN)C(=O)N[C@@H](CC(C)C)C(=O)N[C@@H](CCCNC(=N)N)C(=O)NC(C)(C)C(=O)N[C@@H](CCC(N)=O)C(=O)N[C@H](C(=O)N[C@@H](C)C(=O)N[C@@H](C)C(=O)NC(C)(C)C(=O)N[C@@H](CCCCN)C(=O)N[C@@H](CO)C(=O)N[C@@H](CC(C)C)C(=O)N[C@@H](CCC(N)=O)C(=O)N[C@@H](CO)C(=O)N[C@H](C(=O)N[C@@H](CCCN)C(=O)N[C@@H](CC(N)=O)C(=O)N[C@@H](CCCN)C(=O)NCC(=O)NCC(=O)N1CCC[C@H]1C(=O)N[C@@H](CO)C(=O)N[C@@H](CO)C(=O)NCC(=O)N[C@@H](C)C(=O)N1CCC[C@H]1C(=O)N1CCC[C@H]1C(=O)N1CCC[C@H]1C(=O)N[C@@H](CO)C(=O)O)[C@@H](C)CC)C(C)C)[C@@H](C)O)[C@@H](C)O)C(C)C [Agonist P385] (Hexanoyl-HSDAVFTDNYT[Orn]LR[Aib]QVAA[Aib]KSLQSI[Orn]N[Orn]GGPSSGAPPPS-OH; C-terminus assumed) | > 25000 |  |  |  |
| CCCCCC(=O)N[C@@H](Cc1c[nH]cn1)C(=O)N[C@@H](CO)C(=O)N[C@@H](CC(=O)O)C(=O)N[C@@H](C)C(=O)N[C@H](C(=O)N[C@@H](Cc1ccccc1)C(=O)N[C@H](C(=O)N[C@@H](CC(=O)O)C(=O)N[C@@H](CC(N)=O)C(=O)N[C@@H](Cc1ccc(O)cc1)C(=O)N[C@H](C(=O)N[C@@H](CCCN)C(=O)N[C@@H](CC(C)C)C(=O)N[C@@H](CCCNC(=N)N)C(=O)NC(C)(C)C(=O)N[C@@H](CCC(N)=O)C(=O)N[C@@H](CO)C(=O)N[C@@H](C)C(=O)N[C@@H](C)C(=O)NC(C)(C)C(=O)N[C@@H](CCCCN)C(=O)N[C@@H](Cc1ccc(O)cc1)C(=O)N[C@@H](CC(C)C)C(=O)N[C@@H](CCC(N)=O)C(=O)N[C@@H](CO)C(=O)N[C@H](C(=O)N[C@@H](CCCN)C(=O)N[C@@H](CC(N)=O)C(=O)N[C@@H](CCCN)C(=O)NCC(=O)NCC(=O)N1CCC[C@H]1C(=O)N[C@@H](CO)C(=O)N[C@@H](CO)C(=O)NCC(=O)N[C@@H](C)C(=O)N1CCC[C@H]1C(=O)N1CCC[C@H]1C(=O)N1CCC[C@H]1C(=O)N[C@@H](CO)C(=O)O)[C@@H](C)CC)[C@@H](C)O)[C@@H](C)O)C(C)C [Agonist P389] (Hexanoyl-HSDAVFTDNYT[Orn]LR[Aib]QSAA[Aib]KYLQSI[Orn]N[Orn]GGPSSGAPPPS-OH; C-terminus assumed) | > 25000 |  |  |  |
| CCCCCC(=O)N[C@@H](Cc1c[nH]cn1)C(=O)N[C@@H](CO)C(=O)N[C@@H](CC(=O)O)C(=O)N[C@@H](C)C(=O)N[C@H](C(=O)N[C@@H](Cc1ccccc1)C(=O)N[C@H](C(=O)N[C@@H](CC(=O)O)C(=O)N[C@@H](CO)C(=O)N[C@@H](Cc1ccc(O)cc1)C(=O)N[C@H](C(=O)N[C@@H](CCCN)C(=O)N[C@@H](CC(C)C)C(=O)N[C@@H](CCCNC(=N)N)C(=O)NC(C)(C)C(=O)N[C@@H](CCC(N)=O)C(=O)N[C@H](C(=O)N[C@@H](C)C(=O)N[C@@H](C)C(=O)NC(C)(C)C(=O)N[C@@H](CCCCN)C(=O)N[C@@H](Cc1ccc(O)cc1)C(=O)N[C@@H](CC(C)C)C(=O)N[C@@H](CCC(N)=O)C(=O)N[C@@H](CO)C(=O)N[C@H](C(=O)N[C@@H](CCCN)C(=O)N[C@@H](CC(N)=O)C(=O)N[C@@H](CCCN)C(=O)NCC(=O)NCC(=O)N1CCC[C@H]1C(=O)N[C@@H](CO)C(=O)N[C@@H](CO)C(=O)NCC(=O)N[C@@H](C)C(=O)N1CCC[C@H]1C(=O)N1CCC[C@H]1C(=O)N1CCC[C@H]1C(=O)N[C@@H](CO)C(=O)O)[C@@H](C)CC)C(C)C)[C@@H](C)O)[C@@H](C)O)C(C)C [Agonist P392] (Hexanoyl-HSDAVFTDSYT[Orn]LR[Aib]QVAA[Aib]KYLQSI[Orn]N[Orn]GGPSSGAPPPS-OH; C-terminus assumed) | > 25000 |  |  |  |
| CCCCCC(=O)N[C@@H](Cc1c[nH]cn1)C(=O)N[C@@H](CO)C(=O)N[C@@H](CCC(=O)O)C(=O)N[C@@H](C)C(=O)N[C@H](C(=O)N[C@@H](Cc1ccccc1)C(=O)N[C@H](C(=O)N[C@@H](CCC(=O)O)C(=O)N[C@@H](CCC(N)=O)C(=O)N[C@@H](Cc1ccc(OC)cc1)C(=O)N[C@H](C(=O)N[C@@H](CCCN)C(=O)N[C@@H](CC(C)C)C(=O)N[C@@H](CCCNC(=N)N)C(=O)NC(C)(C)C(=O)N[C@@H](CCC(N)=O)C(=O)N[C@@H](CC(C)C)C(=O)N[C@@H](C)C(=O)N[C@@H](C)C(=O)NC(C)(C)C(=O)N[C@@H](CCCN)C(=O)N[C@@H](Cc1ccc(O)cc1)C(=O)N[C@@H](CC(C)C)C(=O)N[C@@H](CCC(N)=O)C(=O)N[C@@H](CO)C(=O)N[C@H](C(=O)N[C@@H](CCCN)C(=O)N[C@@H](CCCN)C(=O)NCC(=O)NCC(=O)N1CCC[C@H]1C(=O)N[C@@H](CO)C(=O)N[C@@H](CO)C(=O)NCC(=O)N[C@@H](C)C(=O)N1CCC[C@H]1C(=O)N1CCC[C@H]1C(=O)N1CCC[C@H]1C(=O)N[C@@H](CO)C(=O)O)[C@@H](C)CC)[C@@H](C)O)[C@@H](C)O)C(C)C [Agonist P393] (Hexanoyl-HSEAVFTEQY(Me)T[Orn]LR[Aib]QLAA[Aib][Orn]YLQSI[Orn][Orn]GGPSSGAPPPS-OH; C-terminus assumed) | > 25000 |  |  |  |
| Hexanoyl-HSDAVFTDNYTR[Aib]R[Aib]QVAA[Aib]KYLQSIK[Aib]KGGPSSGAPPPS [VPAC2 receptor peptide agonist P405] |  | 0.04 |  |  |
| Hexanoyl-HSEAVFTEQ[Tyr(OMe)]TR[Aib]R[Aib]QLAA[Aib]KYLQSIK[Aib]KGGPSSGAPPPS [VPAC2 receptor peptide agonist P409] |  |  | 0.19 |  |
| HSDAVFTDQYTXLRXQLAAXXYLQSIXXGGPSSGAPPPS (N-terminal hexanoyl (C6); Orn at 12, 21, 27 and 28; Aib at 15 and 20) [VPAC2 receptor peptide agonist P395] |  | 0.03 | 0.15 | 0.35 |
| HSDAVFTDQYTXLRXQVAAXXYLQSIXXGGPSSGAPPPS (N-terminal hexanoyl (C6); Orn at 12, 21, 27 and 28; Aib at 15 and 20) [VPAC2 receptor peptide agonist P396] |  | 0.05 | 0.11 | 1.05 |
| B1 |  | 0.03 | 0.24 | 1.42 |
| HSDAVFTDNYTXLRXSVAAXKYLQSIXNXGGPSSGAPPPS (N-terminal hexanoyl (C6); Orn at 12, 27 and 29; Aib at 15 and 20) [VPAC2 receptor peptide agonist P390] |  | 0.09 | 0.12 | 1.34 |
| Hexanoyl-HSDAVFTDNYTLLR[Aib]QVAA[Aib]KYLQSI[Orn]N[Orn]GGPSSGAPPPS [VPAC2 receptor peptide agonist P367] |  | 6.14 | 6.5 | 75.3 |
| Hexanoyl-HSDAVFTDQYTR[Aib]R[Aib]QLAA[Aib]KYLQSIK[Aib]KGGPSSGAPPPS [VPAC2 receptor peptide agonist P407] |  | 0.03 | 0.12 |  |
